Test results from patent US20240366776A1 (Hoffmann-La Roche, published 2024).

T1: biotinylated IL-2 receptor beta gamma heterodimer Fc (IL-2RBG; Acro ILG-H5254) (UniProt P14784 27-239; P31785 23-262, biotinylated)
T1 construct: bought heterodimer
T1 sequence (looked up) 1: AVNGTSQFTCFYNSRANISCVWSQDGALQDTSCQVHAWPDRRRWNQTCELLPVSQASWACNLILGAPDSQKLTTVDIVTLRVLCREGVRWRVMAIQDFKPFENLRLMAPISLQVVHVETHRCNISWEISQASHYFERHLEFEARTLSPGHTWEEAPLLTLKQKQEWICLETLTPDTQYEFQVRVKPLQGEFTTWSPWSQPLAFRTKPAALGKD
T1 sequence (looked up) 2: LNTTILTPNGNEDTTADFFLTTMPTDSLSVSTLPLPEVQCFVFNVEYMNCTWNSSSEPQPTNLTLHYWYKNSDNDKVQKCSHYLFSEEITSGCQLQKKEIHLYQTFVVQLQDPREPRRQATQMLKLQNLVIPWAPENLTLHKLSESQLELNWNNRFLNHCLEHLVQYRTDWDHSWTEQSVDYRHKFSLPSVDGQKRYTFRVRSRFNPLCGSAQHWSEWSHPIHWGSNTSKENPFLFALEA


Columns and labels:
[1] = target: T1, biotinylated IL-2 receptor beta gamma …; assay: ELISA, captured complex, biotin-IL-2RBG 10 nM, PD-1 Fc titrated
Protocol: The DBA-cytokine complexes and control antibody-cytokine complexes were produced in two formats: (1) “Symmetric” immunocytokine (shown in FIG. 2E); or (2) “Asymmetric” immunocytokine (shown in FIG. 2B) by expression in mammalian cells and purified using standard protocols. […] To perform the assay, 384-well ELISA plates were coated with anti-Fc antibody at 1 micrograms/ml in 100 mM bicarbonate solution pH 9.0 overnight at 4° C. and washed twice with SUPERBLOCK™. Antibody-cytokine complexes were then added to each well at a constant concentration of 6 nM and allowed to incubate for 1 hour and washed three times in PBS plus 0.05% TWEEN® 20 (PBST). Titrated concentrations of PD-1 Fc or an IgG1 control Fc were added and allowed to incubate for 15 minutes before the addition of a constant amount of biotinylated IL-2RBG at 10 nM. The plates were incubated for an additional 30 minutes, washed and biotinylated IL-2RBG detection was performed using streptavidin-HRP and standard ELISA protocols.

PD-1-Fc = PD-1-Fc (UniProt Q15116 25-167, limits assumed); assay: cell-based or functional assay
Sequence of PD-1-Fc (Q15116 25-167 limits assumed): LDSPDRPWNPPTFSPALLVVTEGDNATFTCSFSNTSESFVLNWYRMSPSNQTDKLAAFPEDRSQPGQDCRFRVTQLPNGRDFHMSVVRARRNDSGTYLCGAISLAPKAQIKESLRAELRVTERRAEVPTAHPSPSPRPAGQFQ

| binding result [1] | IL-2 activity EC50, HEK-Blue IL-2 reporter cells, IgG1 coated wells (control) (PD-1-Fc) [nM] | IL-2 activity EC50, HEK-Blue IL-2 reporter cells, PD-1 coated wells (PD-1-Fc) [nM] | IL-2 activity EC50, HEK-Blue IL-2 reporter cells, control wells (PD-1-Fc) [nM] | Binder |
| --- | --- | --- | --- | --- |
|  | 0.062 | 0.031 |  | AF4379 (other) heavy: APTSSSTKKTQLQLEHLLLDLQMILNGINNYKNPKLTDMLTFEFYMPKKATELKHLQCLERELKPLEEVLNLAQSKNFHLRPRDLISNINVIVLELKGSETTFMCEYADETATIVEFLNRWITFCQSIISTLTGGGGSGGGGSGGGGSGGGGSQVQLVQSGAEVKKPGASVKVSCKASGDTFTRYYVHWVRQAPGQGLEWMGIINPSGGYASYAQKFQGRVTMTRDTSTSTVYMELSSLRSEDTAVYYCAAGLFIWGQGTLVTVSSAKTTAPSVYPLAPVCGDTTGSSVTLGCLVKGYFPEPVTLTWNSGSLSSGVHTFPAVLQSDLYTLSSSVTVTSSTWPSQSITCNVAHPASSTKVDKKIEPRGPTIKPCPPCKCPAPNAAGGPSVFIFPPKIKDVLMISLSPIVTCVVVDVSEDDPDVQISWFVNNVEVHTAQTQTHREDYNSTLRVVSALPIQHQDWMSGKEFKCKVNNKDLGAPIERTISKPKGSVRAPQVYVLPPPEEEMTKKQVTLTCMVTDFMPEDIYVEWTNNGKTELNYKNTEPVLDSDGSYFMYSKLRVEKKNWVERNSYSCSVVHEGLHNHHTTKSFSRTPGK light: DIQMTQSPSSLSASVGDRVTITCRASQSIGRYLAWYQQKPGKAPKLLIYSASNLETGVPSRFSGSGSGTDFTLTISSLQPEDFATYYCQQYNSFPVTFGPGTKVDIKRADAAPTVSIFPPSSEQLTSGGASVVCFLNNFYPKDINVKWKIDGSERQNGVLNSWTDQDSKDSTYSMSSTLTLTKDEYERHNSYTCEATHKTSTSPIVKSFNRNEC |
|  |  | 0.026 | 0.064 | AF4404 (other) heavy 1: QVQLVESGGGVVQPGRSLRLDCKASGITFSNSGMHWVRQAPGKGLEWVAVIWYDGSKRYYADSVKGRFTISRDNSKNTLFLQMNSLRAEDTAVYYCATNDDYWGQGTLVTVSSAKTTAPSVYPLAPVCGDTTGSSVTLGCLVKGYFPEPVTLTWNSGSLSSGVHTFPAVLQSDLYTLSSSVTVTSSTWPSQSITCNVAHPASSTKVDKKIEPRGPTIKPCPPCKCPAPNAAGGPSVFIFPPKIKDVLMISLSPIVTCVVVDVSEDDPDVQISWFVNNVEVHTAQTQTHREDYNSTLRVVSALPIQHQDWMSGKEFKCKVNNKDLGAPIERTISKPKGSVRAPQVYVLPPPEEEMTKKQVTLTCMVTDFMPEDIYVEWTNNGKTELNYKNTEPVLDSDGSYFMYSDLRVEKKNWVERNSYSCSVVHEGLHNHHTTESFSRTPGGGGGSGGGGSGGGGSAPTSSSTKKTQLQLEHLLLDLQMILNGINNYKNPKLTDMLTFEFYMPKKATELKHLQCLERELKPLEEVLNLAQSKNFHLRPRDLISNINVIVLELKGSETTFMCEYADETATIVEFLNRWITFCQSIISTLT heavy 2: QVQLVESGGGVVQPGRSLRLDCKASGITFSNSGMHWVRQAPGKGLEWVAVIWYDGSKRYYADSVKGRFTISRDNSKNTLFLQMNSLRAEDTAVYYCATNDDYWGQGTLVTVSSAKTTAPSVYPLAPVCGDTTGSSVTLGCLVKGYFPEPVTLTWNSGSLSSGVHTFPAVLQSDLYTLSSSVTVTSSTWPSQSITCNVAHPASSTKVDKKIEPRGPTIKPCPPCKCPAPNAAGGPSVFIFPPKIKDVLMISLSPIVTCVVVDVSEDDPDVQISWFVNNVEVHTAQTQTHREDYNSTLRVVSALPIQHQDWMSGKEFKCKVNNKDLGAPIERTISKPKGSVRAPQVYVLPPPEKEMTKKQVSLTCLVKDFMPEDIYVEWTNNGKTELNYKNTEPVLKSDGSYFMYSKLTVEKKNWVERNSYSCSVVHEGLHNHHTTKSFSRTPGGGGGSGGGGSGGGGSGGGGSQVQLVQSGAEVKKPGASVKVSCKASGYTFTDYYMHWVRQAPGQGLEWMGIINPRAGYTSYALKFQGRVTMTRDTSTSTVYMELSSLRSEDTAVYYCTSGWDVWGQGTLVTVSSASGGGGSGGGGSGGGGSHASDIQMTQSPSSLSASVGDRVTITCRASQSISTWLAWYQQKPGKAPKLLIYAASSLDSGVPSRFSGSGSGTDFTLTISSLQPEDFATYYCQQSYSFPVTFGQGTKVEIKGGGSGGGSHHHHHH light: EIVLTQSPATLSLSPGERATLSCRASQSVSSYLAWYQQKPGQAPRLLIYDASNRATGIPARFSGSGSGTDFTLTISSLEPEDFAVYYCQQSSNWPRTFGQGTKVEIKRADAAPTVSIFPPSSEQLTSGGASVVCFLNNFYPKDINVKWKIDGSERQNGVLNSWTDQDSKDSTYSMSSTLTLTKDEYERHNSYTCEATHKTSTSPIVKSFNRNEC |

The remaining lines, values behind:

| Binder | binding result [1] | IL-2 activity EC50, HEK-Blue IL-2 reporter cells, IgG1 coated wells (control) (PD-1-Fc) [nM] | IL-2 activity EC50, HEK-Blue IL-2 reporter cells, PD-1 coated wells (PD-1-Fc) [nM] | IL-2 activity EC50, HEK-Blue IL-2 reporter cells, control wells (PD-1-Fc) [nM] |
| --- | --- | --- | --- | --- |
| AF003955 (other, also called AF3955) heavy 1: APASSSTKKTQLQLEHLLLDLQMILNGINNYKNPKLTRMLTAKFAMPKKATELKHLQCLEEELKPLEEVLNGAQSKNFHLRPRDLISNINVIVLELKGSETTFMCEYADETATIVEFLNRWITFAQSIISTLTGGGGSGGGGSGGGGSGGGGSQVQLVQSGAEVKKPGASVKVSCKASGHTFTRYYMHWVRQAPGQGLEWMGIINPSGGYATYAQKFQGRVTMTRDTSTSTVYMELSSLRSEDTAVYYCASGLFIWGQGTLVTVSSAKTTAPSVYPLAPVCGDTTGSSVTLGCLVKGYFPEPVTLTWNSGSLSSGVHTFPAVLQSDLYTLSSSVTVTSSTWPSQSITCNVAHPASSTKVDKKIEPRGPTIKPCPPCKCPAPNAAGGPSVFIFPPKIKDVLMISLSPIVTCVVVDVSEDDPDVQISWFVNNVEVHTAQTQTHREDYNSTLRVVSALPIQHQDWMSGKEFKCKVNNKDLGAPIERTISKPKGSVRAPQVYVLPPPEEEMTKKQVTLTCMVTDFMPEDIYVEWTNNGKTELNYKNTEPVLDSDGSYFMYSDLRVEKKNWVERNSYSCSVVHEGLHNHHTTESFSRTPGK heavy 2: QVQLVQSGAEVKKPGASVKVSCKASGHTFTRYYMHWVRQAPGQGLEWMGIINPSGGYATYAQKFQGRVTMTRDTSTSTVYMELSSLRSEDTAVYYCASGLFIWGQGTLVTVSSAKTTAPSVYPLAPVCGDTTGSSVTLGCLVKGYFPEPVTLTWNSGSLSSGVHTFPAVLQSDLYTLSSSVTVTSSTWPSQSITCNVAHPASSTKVDKKIEPRGPTIKPCPPCKCPAPNAAGGPSVFIFPPKIKDVLMISLSPIVTCVVVDVSEDDPDVQISWFVNNVEVHTAQTQTHREDYNSTLRVVSALPIQHQDWMSGKEFKCKVNNKDLGAPIERTISKPKGSVRAPQVYVLPPPEKEMTKKQVSLTCLVKDFMPEDIYVEWTNNGKTELNYKNTEPVLKSDGSYFMYSKLTVEKKNWVERNSYSCSVVHEGLHNHHTTKSFSRTPGGGGSGGGSHHHHHH light: DIQMTQSPSSLSASVGDRVTITCRASQSINSWLAWYQQKPGKAPKLLIYATSTLESGVPSRFSGSGSGTDFTLTISSLQPEDFATYYCQQYYRFPVTFGQGTKVEIKRADAAPTVSIFPPSSEQLTSGGASVVCFLNNFYPKDINVKWKIDGSERQNGVLNSWTDQDSKDSTYSMSSTLTLTKDEYERHNSYTCEATHKTSTSPIVKSFNRNEC | binds |  |  |  |
| AF4403 (other) heavy 1: QVQLVESGGGVVQPGRSLRLDCKASGITFSNSGMHWVRQAPGKGLEWVAVIWYDGSKRYYADSVKGRFTISRDNSKNTLFLQMNSLRAEDTAVYYCATNDDYWGQGTLVTVSSAKTTAPSVYPLAPVCGDTTGSSVTLGCLVKGYFPEPVTLTWNSGSLSSGVHTFPAVLQSDLYTLSSSVTVTSSTWPSQSITCNVAHPASSTKVDKKIEPRGPTIKPCPPCKCPAPNAAGGPSVFIFPPKIKDVLMISLSPIVTCVVVDVSEDDPDVQISWFVNNVEVHTAQTQTHREDYNSTLRVVSALPIQHQDWMSGKEFKCKVNNKDLGAPIERTISKPKGSVRAPQVYVLPPPEEEMTKKQVTLTCMVTDFMPEDIYVEWTNNGKTELNYKNTEPVLDSDGSYFMYSDLRVEKKNWVERNSYSCSVVHEGLHNHHTTESFSRTPGGGGGSGGGGSGGGGSAPTSSSTKKTQLQLEHLLLDLQMILNGINNYKNPKLTDMLTFEFYMPKKATELKHLQCLERELKPLEEVLNLAQSKNFHLRPRDLISNINVIVLELKGSETTFMCEYADETATIVEFLNRWITFCQSIISTLT heavy 2: QVQLVESGGGVVQPGRSLRLDCKASGITFSNSGMHWVRQAPGKGLEWVAVIWYDGSKRYYADSVKGRFTISRDNSKNTLFLQMNSLRAEDTAVYYCATNDDYWGQGTLVTVSSAKTTAPSVYPLAPVCGDTTGSSVTLGCLVKGYFPEPVTLTWNSGSLSSGVHTFPAVLQSDLYTLSSSVTVTSSTWPSQSITCNVAHPASSTKVDKKIEPRGPTIKPCPPCKCPAPNAAGGPSVFIFPPKIKDVLMISLSPIVTCVVVDVSEDDPDVQISWFVNNVEVHTAQTQTHREDYNSTLRVVSALPIQHQDWMSGKEFKCKVNNKDLGAPIERTISKPKGSVRAPQVYVLPPPEKEMTKKQVSLTCLVKDFMPEDIYVEWTNNGKTELNYKNTEPVLKSDGSYFMYSKLTVEKKNWVERNSYSCSVVHEGLHNHHTTKSFSRTPGGGGGSGGGGSGGGGSGGGGSQVQLVQSGAEVKKPGASVKVSCKASGDTFTRYYVHWVRQAPGQGLEWMGIINPSGGYASYAQKFQGRVTMTRDTSTSTVYMELSSLRSEDTAVYYCAAGLFIWGQGTLVTVSSASGGGGSGGGGSGGGGSHASDIQMTQSPSSLSASVGDRVTITCRASQSIGRYLAWYQQKPGKAPKLLIYSASNLETGVPSRFSGSGSGTDFTLTISSLQPEDFATYYCQQYNSFPVTFGPGTKVDIKGGGSGGGSHHHHHH light: EIVLTQSPATLSLSPGERATLSCRASQSVSSYLAWYQQKPGQAPRLLIYDASNRATGIPARFSGSGSGTDFTLTISSLEPEDFAVYYCQQSSNWPRTFGQGTKVEIKRADAAPTVSIFPPSSEQLTSGGASVVCFLNNFYPKDINVKWKIDGSERQNGVLNSWTDQDSKDSTYSMSSTLTLTKDEYERHNSYTCEATHKTSTSPIVKSFNRNEC |  |  | 0.031 | 0.062 |
